Reference: US20260235601, “APTAMER BASED DETECTION OF SARS-COV-2 INFECTION” (COUNCIL OF SCIENTIFIC & INDUSTRIAL RESEARCH, published 2026)

Target: SARS-CoV-2 spike receptor-binding domain (RBD) (SARS-CoV-2 (Wuhan strain), UniProt P0DTC2 P0DTC2:319-541)
Assay: ELONA
Conditions: tags: N-terminal His tag, pET-15b, E. coli BL21 Star (DE3), about 26 kDa

Row | Binder | activity [ng/mL] | binding result | other results
1 | ATTTAAAGCGCTTCGATGCGTATGGGTTTGTCCGAT (ssDNA) [AptRBD6.1] | 4 | – | –
2 | ATTTAAAGCGGTTCGATGCGTATGGTTTGTCCGAT (ssDNA) [AptRBD3.2] | 4 | – | –
3 | AptRBD9 (ssDNA) DNA: ATGCGGATCCCGCGCCCGACGTCGCATGCTCCCGGCCGCCATGGCGGCCGCGGGAATTCGATTAGCGCGAAGCTTGCGC | – | binds | –
4 | AGCGGTTCGATGCGTATGGTTTGTCCGAT (ssDNA) [AptRBD3.3] | 4 | – | –
5 | ATTTAAAGCGGTTCGATGCGTATGGTTTGTCCGATTCGGT (ssDNA) [AptRBD3.1] | 4 | – | –
6 | AptRBD3 (ssDNA) DNA: ATGCGGATCCCGCGCATTTAAAGCGGTTCGATGCGTATGGGTTTGTCCGATTCGGTGCGCGAAGCTTGCGC | – | – | binding signal: 0.75 absorbance
7 | AptRBD6 (ssDNA) DNA: ATGCGGATCCCGCGCATTTAAAGCGCTTCGATGCGTATGGGTTTGTCCGATTAGCTGCGCGAAGCTTGCGC | – | – | binding signal: 0.7 absorbance
8 | AptRBD8 (ssDNA) DNA: ATGCGGATCCCGCGCATTTAAAGGGGGCGCTCCGTATGGGTTTGTCCGATTAGCTGCGCGAAGCTTGCGC | – | – | binding signal: 0.75 absorbance
9 | AptRBD4 (ssDNA) DNA: ATGCGGATCCCGCGCATTTAAAGCGTCGATGCGTATGGGTTTGTCCGATTAGCTGCGCGAAGCTTGCGC | – | binds | –
10 | AptRBD5 (ssDNA) DNA: ATGCGGATCCCGCGCATTTAAAGGGAGACCTATGGGTTTGTCCGATTAGCTGCGCGAAGCTTGCGC | – | binds | –
11 | AptRBD2 (ssDNA) DNA: ATGCGGATCCCGCGCATATTAAAGGGGAGGCTCCCTATGGGTTTGTCCGATTAGCTGCGCGAAGCTTGCGC | – | binds | –
12 | ATTTAAAGGGGGCGCTCCGTATGGGTTTGTCCGATTAGCT (ssDNA) [AptRBD8.1] | 8 | – | –
